Measurements taken from patent US20110039770A1, “INHIBITORS OF PROTEIN KINASE C ISOFORMS AND USES THEREOF” (PHARMAGAP INC., priority 2005, published 2011).
Where a SMILES comes first, the peptide text is derived from it. [ ]: non-standard residue; d: D form.

Tests used:
[1] = target: PKC-α (Homo sapiens, UniProt P17252); assay: ELISA-based competitive binding assay with purified PKC isoform; design: key to Affinity for PKC isoform α: —: no detectable affinity; Low to very low affinity at 10X or 20X or both PRE concentrations in at least one cell line in the cell extract assay; Low affinity in purified isoform assay.; Moderate affinity at 10X or 20X or both PRE concentrations in at least one cell line in the cell extract assay.; High affinity at 10X or 20X or both PRE concentrations in at least one cell line in the cell extract assay; High affinity in purified isoform assay; conditions: for Affinity for PKC isoform α: Purified isoform
Protocol: Peptides PRE 1, 2, 3, 4, 5, 6, 7, 8, 9, 10, 11, 12 and 13 (see Table 3) were tested for their ability to interfere with binding of PKC isoform-specific antibodies to their target PKC isoforms using a competitive binding assay and purified PKC isoforms.
Procedure: Competitive binding was assessed using a 96 well plate ELISA-based assay as described below.
Greiner 96 well ELISA plates were coated with the appropriate PKC isoform diluted in PBSN (PBS with Calcium/Magnesium+0.05% Sodium azide w/w). 50 μL/well at 250 ng/mL was used. Control wells contained PBSN only. Plates were incubated overnight at 4° C.
The plates were washed 3 times with 200 μL of dH2O per well, then 100 μL of blocking solution was added per well and the plate incubated for 1 h at 37° C. The washing steps with dH2O were repeated and 50 μL of the appropriate PRE solution (PRE stock solution [20 mM in DMSO] diluted in PBSN) was added and the plate incubated for 1 h at room temperature.
After incubation, 5 μL of 1.1:400 anti-PKC (isoform specific antibody) was added per well (to provide a final concentration of 1:4000). For PKC-epsilon, 1.1:800 dilution was used and for PKC-zeta a 1.1:100 dilution was used due to high and low binding affinity, respectively. The plates were then incubated 1 h at room temperature, followed by washing with dH2O as described above.
50 μL of 1:1000 dilution of Alkaline Phosphatase (AP) conjugated antibody (anti-rabbit for all except zeta, which was anti-goat) was then added and the plate incubated for 1 h at room temperature. Washing with dH2O was then repeated. Finally, 100 μL of pNPP solution in pNPP buffer (2 mM MgCl2, 100 mM Sodium bicarbonate in water, pH 9.8) was added to all wells and incubated for 8 minutes for α, βI, βII ε, and ζ, or for 15-20 mins for δ (until sufficient coloration is observed). The reaction was stopped by addition of Stop solution (2N NaOH) and the absorbance at 405 nm was read on a Galaxy Plate reader.
Controls were PKC without PRE; blank controls, and controls containing the final concentrations of DMSO used for solubilizing the PREs. The non-specific binding capacity related to DMSO was also measured.
The antibodies used were as follows: anti-PKC α (Cat. No. SC-208); anti-PKC βI (Cat. No. SC-209); anti-PKC βII (Cat. No. SC-210); anti-PKC δ (Cat. No. SC-213); anti-PKC ε (Cat. No. SC-214); anti-PKC ζ (Cat. No. SC-216-G) (all from Santa Cruz Biotechnology, Inc.). The AP-conjugated antibodies were obtained from Jackson Immuno Research Laboratories (West Grove, Pa.).
Calculations: The OD values measured at 405 nm represent the free PKC coated per well.
OD405 PKC alone−Blank OD405 of each sample=OD405 coated isoform
(OD405 of sample X/OD405 coated isoform)×100=% n that represents the percentage of X binding compared to control.
100-% n measures the relative binding capacity of X towards the tested isoform.
The apparent binding capacity of the DMSO samples was then subtracted from X binding capacity.
All measurements were made in triplicate and the values in the table represent the averaged calculated binding capacity values after subtraction of the DMSO apparent binding capacity (averaged from 12 values, respectively 10.80, 11.20 and 16.40 corresponding to the concentrations of DMSO used to dilute the […] at 200, 100 and 50 μM respectively). The results allow for quantitative comparison of the binding capacity of each PRE towards an individual isoform within each table, but not among isoforms due to differences in sensitivity of the specific antibodies toward the secondary antibody. This applies particularly to PKC-delta. As noted above, the colour development duration was increased 2-3 times and, as a result, the OD405 measurements may be overestimated for this isoform.

[2] = test system: PKC-βII; assay: Competitive binding assay using cell extracts (Western blot); design: species or system human; key: —: no detectable affinity; Low to very low affinity at 10X or 20X or both PRE concentrations in at least one cell line in the cell extract assay; Low affinity in purified isoform assay.; Moderate affinity at 10X or 20X or both PRE concentrations in at least one cell line in the cell extract assay.; High affinity at 10X or 20X or both PRE concentrations in at least one cell line in the cell extract assay; High affinity in purified isoform assay; conditions: Cell extract; PRE 10X or 20X antibody concentration
Protocol: Binding efficiency and specificity of the peptides PRE 2, 3, 4, 5, 6, 7, 8, 9, 10, 11, 12 and 13 (see Table 4) was also tested using cytoplasmic extracts from different cell lines expressing appropriate PKC isoforms as described for Example 1. Briefly, the protein cytoplasmic extracts were separated by electrophoresis and transferred onto nitrocellulose membranes by standard Western blotting procedures. The bands on the Western blots were detected with matching primary antibodies and alkaline phosphatase conjugated secondary antibody. The bands were then scanned and the relative density measurements obtained.
This procedure to assess the binding characteristics of the PREs is based on competition binding of the PRE with the primary anti-isoform PKC specific antibodies. The lower the measured band density, the greater the binding of the PRE to the PKC isoform. The PREs were added at 10 and 20 times (10×, 20×) the primary antibody concentration, according to classical competition between antigenic peptide and primary antibody. The following cell lines (obtained from the ATCC) were used: H661—NCI human lung carcinoma NSCLC; MDAMB231—human highly invasive breast cancer cell line from pleural effusion; LS180—human colon adenocarcinoma; LnCAP—human prostate adenocarcinoma; CCD16Lu—human lung fibroblasts; Du145—human prostate carcinoma brain metastasis, and T24—human bladder carcinoma.
In these cases, the 20× band density figures relative to control and 10× values were reliable.

[3] = target: PKC-βI (Homo sapiens, UniProt P05771); assay: as above; design: PKC-βII by PRE 3 and PRE 4 in IMR-32 Neuroblastoma; endogenous in cells; host or cells: IMR-32 human neuroblastoma cells; key: —: no detectable affinity; Low to very low affinity at 10X or 20X or both PRE concentrations in at least one cell line in the cell extract assay; Low affinity in purified isoform assay.; Moderate affinity at 10X or 20X or both PRE concentrations in at least one cell line in the cell extract assay.; High affinity at 10X or 20X or both PRE concentrations in at least one cell line in the cell extract assay; High affinity in purified isoform assay; conditions: Cell extract; PRE 10X or 20X antibody concentration
PKC-βI, sequence (P05771 whole entry, canonical isoform): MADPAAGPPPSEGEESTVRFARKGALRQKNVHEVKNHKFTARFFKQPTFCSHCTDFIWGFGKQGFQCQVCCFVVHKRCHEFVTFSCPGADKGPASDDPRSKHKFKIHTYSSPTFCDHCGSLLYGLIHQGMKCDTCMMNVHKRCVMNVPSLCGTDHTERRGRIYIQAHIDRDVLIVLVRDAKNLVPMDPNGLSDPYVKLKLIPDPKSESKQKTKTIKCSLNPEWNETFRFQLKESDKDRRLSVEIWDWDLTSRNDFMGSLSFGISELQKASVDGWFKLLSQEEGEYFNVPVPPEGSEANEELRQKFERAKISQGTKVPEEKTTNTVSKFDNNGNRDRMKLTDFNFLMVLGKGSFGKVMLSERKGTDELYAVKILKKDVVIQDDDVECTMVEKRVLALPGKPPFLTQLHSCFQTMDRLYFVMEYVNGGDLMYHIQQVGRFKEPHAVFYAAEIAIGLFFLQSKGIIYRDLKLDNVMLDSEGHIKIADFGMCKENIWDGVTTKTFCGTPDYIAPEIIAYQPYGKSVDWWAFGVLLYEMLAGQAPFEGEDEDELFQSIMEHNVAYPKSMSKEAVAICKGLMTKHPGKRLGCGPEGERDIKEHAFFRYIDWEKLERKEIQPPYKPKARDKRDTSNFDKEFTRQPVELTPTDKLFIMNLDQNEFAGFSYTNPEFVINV

Row | Compound | Affinity for PKC isoform α [1] | Affinity for PKC isoform βII [2] | Affinity for PKC isoform βI [3] | inhibition at 50 µM ([1]; PRE 50 μM, purified PKC-α, read-out: calculated binding capacity (100-% n, DMSO apparent binding subtracted)) [%] | inhibition at 100 µM ([1]; PRE 100 μM, purified PKC-α, read-out: calculated binding capacity (100-% n, DMSO apparent binding subtracted)) [%] | inhibition at 200 µM ([1]; PRE 200 μM, purified PKC-α, read-out: calculated binding capacity (100-% n, DMSO apparent binding subtracted)) [%] | calculated binding capacity (100-% n, DMSO apparent binding subtracted) ([1]; PRE 100 μM, purified PKC-α) [%]
1 | CC[C@H](C)[C@H](NC(=O)[C@H](CO)NC(=O)[C@@H](NC(=O)CNC(=O)[C@@H](NC(=O)[C@H](CC(C)C)NC(=O)[C@H](CC(N)=O)NC(=O)[C@H](CCC(N)=O)NC(=O)[C@H](C)NC(=O)[C@H](CC(=O)O)NC(=O)CNC(=O)CNC(=O)[C@H](CCCCN)NC(=O)[C@@H](NC(=O)[C@H](CCC(=O)O)NC(=O)[C@H](CCC(N)=O)NC(=O)[C@@H](NC(=O)CNC(=O)[C@H](CCCCN)NC(=O)[C@H](C)NC(C)=O)[C@@H](C)CC)C(C)C)[C@@H](C)CC)[C@@H](C)CC)C(N)=O [PRE 3] (Ac-AKGIQEVKGGDAQNLIGISI-NH2) | H | L | L |  |  |  | 
2 | CC[C@H](C)[C@H](NC(=O)[C@H](CO)NC(=O)[C@@H](NC(=O)CNC(=O)[C@@H](NC(=O)[C@H](CC(C)C)NC(=O)[C@H](CC(N)=O)NC(=O)[C@H](CCC(N)=O)NC(=O)[C@H](C)NC(=O)[C@H](CC(=O)O)NC(=O)[C@H](CCCCN)NC(C)=O)[C@@H](C)CC)[C@@H](C)CC)C(N)=O [PRE 4, Ac-KDAQNLIGISI-NH2] (Ac-KDAQNLIGISI-NH2) | H | L | H |  |  |  | 
3 | CC[C@H](C)[C@H](NC(=O)[C@H](CO)NC(=O)[C@@H](NC(=O)CNC(=O)[C@@H](NC(=O)[C@H](CC(C)C)NC(=O)[C@H](CC(N)=O)NC(=O)[C@H](CCC(N)=O)NC(=O)[C@H](C)NC(=O)[C@H](CC(=O)O)NC(=O)[C@H](CCCCN)NC(=O)CNC(=O)CNC(=O)[C@H](CCCCN)NC(=O)[C@@H](NC(=O)[C@H](CCC(=O)O)NC(=O)[C@H](CCC(N)=O)NC(=O)[C@@H](NC(=O)CNC(=O)[C@H](CCCCN)NC(=O)[C@H](C)NC(C)=O)[C@@H](C)CC)C(C)C)[C@@H](C)CC)[C@@H](C)CC)C(N)=O [PRE 5] (Ac-AKGIQEVKGGKDAQNLIGISI-NH2) | — | H | H | 0 | 0 | 0 | 
4 | Ac-ISIGILNQADK-NH2 [PRE 10] | — | — | M |  |  |  | 
5 | Ac-ISIGILQNADK-NH2 (not fully specified; printed as Ac-ISIGILQNADK-NH2) [PRE 7] | L |  | — |  |  |  | 
6 | Ac-KDANQLIGISI-NH2 [PRE 6] | — |  | H |  |  |  | 
7 | Ac-KDAQNLI-NH2 [PRE 12] | — | L | — |  |  |  | 
8 | Ac-RDAQNLI-NH2 [PRE 13] | — |  | — |  |  |  | 
9 | Ac-RDAQNLIGISI-NH2 [PRE 11] | L |  | H |  |  |  | 
10 | Ac-isigilqnadk-NH2 (Ac-[dI][dS][dI]G[dI][dL][dQ][dN][dA][dD][dK]-NH2; SMILES CC[C@@H](C)[C@@H](NC(C)=O)C(=O)N[C@H](CO)C(=O)N[C@@H](C(=O)NCC(=O)N[C@@H](C(=O)N[C@H](CC(C)C)C(=O)N[C@H](CCC(N)=O)C(=O)N[C@H](CC(N)=O)C(=O)N[C@H](C)C(=O)N[C@H](CC(=O)O)C(=O)N[C@H](CCCCN)C(N)=O)[C@H](C)CC)[C@H](C)CC) [PRE 9] | — | — | M |  |  |  | 5.35
11 | ILEDKGGDAQNLIGISI [PRE 8] | — | H |  |  |  |  | 
12 | RRKKGGKDFVVKR [PRE 1] | — |  | H |  |  |  | 
